# Measurements from patent US20260146107A1 (ALLIGATOR BIOSCIENCE, published 2026).
# T1: biotinylated human CEACAM5-His (Acro Biosystems #CE5-H82E0) (human, UniProt P06731 35-685, biotinylated (site not stated))
# T1 construct: also called CEACAM5-biotin; captured human CEACAM5-biotin; not shown: His tag
# T1 sequence (looked up): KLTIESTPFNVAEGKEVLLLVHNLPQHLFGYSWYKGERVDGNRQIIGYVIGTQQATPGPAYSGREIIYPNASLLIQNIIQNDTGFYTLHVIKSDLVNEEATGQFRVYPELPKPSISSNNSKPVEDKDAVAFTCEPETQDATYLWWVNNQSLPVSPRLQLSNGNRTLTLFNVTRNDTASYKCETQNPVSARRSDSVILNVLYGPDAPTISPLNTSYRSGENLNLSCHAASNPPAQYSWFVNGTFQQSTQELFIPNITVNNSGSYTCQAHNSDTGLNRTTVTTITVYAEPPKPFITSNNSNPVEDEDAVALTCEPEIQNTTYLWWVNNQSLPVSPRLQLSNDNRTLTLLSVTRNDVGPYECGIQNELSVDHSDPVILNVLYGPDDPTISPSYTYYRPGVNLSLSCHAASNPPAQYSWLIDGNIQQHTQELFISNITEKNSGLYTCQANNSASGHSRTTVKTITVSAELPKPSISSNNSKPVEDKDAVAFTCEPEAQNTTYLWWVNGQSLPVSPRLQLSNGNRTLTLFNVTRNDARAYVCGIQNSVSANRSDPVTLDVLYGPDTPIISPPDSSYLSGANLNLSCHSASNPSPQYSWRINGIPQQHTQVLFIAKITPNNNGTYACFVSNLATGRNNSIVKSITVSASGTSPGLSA
# T2: human CEACAM5 expressed on cells (CHO-CEACAM5 transfectants; MKN45 and LS174T tumour cells) (human, UniProt P06731 35-685)
# T2 construct: whole, on cells; also called CEACAM5 on cells; hCEA
# T2 sequence (looked up): T1 sequence (looked up)
# T3: human CEACAM5, recombinant (R&D Systems #4128-CM-050) (human, UniProt P06731 35-685)
# T3 construct: Bought; coated in ELISA and used as monomeric analyte in Octet; also called hCEACAM-5; Human CEACAM5-His; not shown: His tag
# T3 sequence (looked up): T1 sequence (looked up)
# T4: human CEACAM1 expressed on CHO cells (human, UniProt P13688 35-526)
# T4 construct: whole, on cells; also called CHO-CEACAM1; CEACAM1 on cells
# T4 sequence (looked up): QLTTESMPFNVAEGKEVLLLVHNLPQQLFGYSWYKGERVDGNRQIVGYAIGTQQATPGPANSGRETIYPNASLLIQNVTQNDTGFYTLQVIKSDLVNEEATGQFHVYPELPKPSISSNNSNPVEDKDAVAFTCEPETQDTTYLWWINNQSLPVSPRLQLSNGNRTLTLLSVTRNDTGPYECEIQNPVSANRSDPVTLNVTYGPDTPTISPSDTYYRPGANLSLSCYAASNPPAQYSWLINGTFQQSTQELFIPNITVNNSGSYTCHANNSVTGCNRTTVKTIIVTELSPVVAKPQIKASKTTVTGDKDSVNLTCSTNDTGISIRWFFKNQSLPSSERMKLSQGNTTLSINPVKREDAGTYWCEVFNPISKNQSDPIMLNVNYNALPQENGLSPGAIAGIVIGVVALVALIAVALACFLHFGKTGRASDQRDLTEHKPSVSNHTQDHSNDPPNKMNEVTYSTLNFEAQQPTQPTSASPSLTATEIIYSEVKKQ
# T5: human CEACAM6, recombinant (R&D Systems #3934-CM-050) (human, UniProt P40199 35-320)
# T5 construct: also called hCEACAM-6
# T5 sequence (looked up): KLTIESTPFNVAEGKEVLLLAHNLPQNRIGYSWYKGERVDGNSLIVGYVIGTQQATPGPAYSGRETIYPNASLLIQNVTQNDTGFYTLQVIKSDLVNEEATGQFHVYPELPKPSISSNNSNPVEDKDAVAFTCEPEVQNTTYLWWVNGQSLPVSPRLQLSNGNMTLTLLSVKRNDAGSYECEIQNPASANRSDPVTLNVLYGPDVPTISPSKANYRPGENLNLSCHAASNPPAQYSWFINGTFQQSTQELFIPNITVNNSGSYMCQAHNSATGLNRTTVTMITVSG
# T6: CEACAM-8, recombinant (R&D Systems #9639-CM-050) (UniProt P31997 35-320)
# T6 sequence (looked up): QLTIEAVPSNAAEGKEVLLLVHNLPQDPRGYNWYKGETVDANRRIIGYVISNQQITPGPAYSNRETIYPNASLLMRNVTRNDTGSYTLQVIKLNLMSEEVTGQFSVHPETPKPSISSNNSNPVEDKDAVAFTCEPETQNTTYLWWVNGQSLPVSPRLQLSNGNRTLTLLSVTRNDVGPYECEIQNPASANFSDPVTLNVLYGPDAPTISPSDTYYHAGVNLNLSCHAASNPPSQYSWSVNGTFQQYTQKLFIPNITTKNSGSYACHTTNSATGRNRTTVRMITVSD
# B1: Multi41 (bispecific antibody)
# heavy 1: not shown
# light: DIQMTQSPSSLSASVGDRVTITCRASQSISSYLNWYQEKPGKAPKLLIYAASSLQSGVPSRFSGSGSGTDFTLTISSLQPEDFATYYCQQWRSHLFTFGQGTKLEIKRTVAAPSVFIFPPSDEQLKSGTASVVCYLNNFYPREAKVQWKVDNALQSGNSQESVTEQDSKDSTYSLWSTLTLSKADYEKHKVYACEVTHQGLSSPVTKSFNRGEC
# heavy 2: EVQLLESGGGLVQPGGSLRLSCAASGFTFSTYGMHWVREAPGKGLEWLSYISGGSSYIFYADSVKGRFTISRDNSKNTLYLQMNSLRAEDTAVYYCARILRGGSGMDLWGQGTLVTVSSASTKGPSVFPLAPSSKSTSGGTAALGCLVKDYFPEPVTVSWNSGALTSGVHTFPAVLQSSGLYSLTSVVEVPSSSLGTQTYICNVNHKPSNTKVDKKVEPKSC
# notes: Optimised RUBY format, CEACAM5xCD40; copies: 2 + 2 + 2
# Key:
# [1] = target: T1, biotinylated human CEACAM5-His (Acro …); test: Octet BLI, captured CEACAM5-biotin, bsAb in solution, 1:1 fit
# Procedure: Kinetic measurements were performed in the Octet RED96 platform using several different setups. […] Monomeric human CD40-His-Avi tag (Acro Biosystems #CD0-H5228), monomeric Human CEACAM5-His (R&D Systems #4128-CM-050) or monomeric Cynomolgus CEACAM5-His (Sino Biological #90891-C08H) were ½ serially diluted in 1× kinetic buffer (Sartorius) starting at 500 nM or 100 nM. […] Binding kinetics was studied in 1× kinetic buffer where association was allowed for 100 sec, 300 sec or 600 sec followed by dissociation for 100 sec, 300 sec or 3600 sec. Sensor tips were regenerated with 10 mM Glycine pH 1.7. Data generated were referenced by subtracting blank or parallel buffer blank, the baseline was aligned to the y-axis, inter-step correction by alignment against dissociation was performed and the data was smoothed by Savitzky-Golay filter in the data analysis software (v9.0.0.14). The processed data was fitted using a 1:1 Langmuir binding model with R² or X² as a measurement of fitting accuracy.
# Association was measured for 100 sec and dissociation measured for 100 sec.
# [2] = target: T2, human CEACAM5 expressed on cells …; test: flow cytometry on CHO-CEACAM5 cells, fluorochrome-conjugated anti-human IgG, MFI
# From the text: (§1) The human CEACAM5 and CEACAM1 genes were cloned into pcDNA3.1, and the vector was subsequently stably transfected into CHO cells. […] Binding of the antibodies was detected using fluorochrome-conjugated anti-human IgG and analyzed using flow cytometry.
# [3] = target: T3, human CEACAM5, recombinant (R&D Systems …); test: dual-target ELISA: hCEACAM-5 coated, bsAb titrated, detected with biotinylated hCD40-muIg and streptavidin-HRP, luminescence; signal needs both targets bound
# [4] = target: T4, human CEACAM1 expressed on CHO cells; test: flow cytometry on CHO-CEACAM1 cells, fluorochrome-conjugated anti-human IgG, MFI
# From the text: as §1
# [5] = target: human CD40 expressed on cells (CD40 reporter cells, HEK Blue CD40L cells, primary B cells, tumour APCs) (human, UniProt P25942 21-277); test: cell-based or functional assay
# [6] = target: T5, human CEACAM6, recombinant (R&D Systems …); test: ELISA, antigen coated at 0.5 µg/mL, bsAb titrated, anti-human kappa-HRP, luminescence
# [7] = target: T6, CEACAM-8, recombinant (R&D Systems …); test: as above
# [8] = target: T3, human CEACAM5, recombinant (R&D Systems …); test: as above
# Chain of human CD40 expressed on cells (CD40 reporter cells, HEK Blue CD40L cells, primary B cells, tumour APCs) (P25942 21-277): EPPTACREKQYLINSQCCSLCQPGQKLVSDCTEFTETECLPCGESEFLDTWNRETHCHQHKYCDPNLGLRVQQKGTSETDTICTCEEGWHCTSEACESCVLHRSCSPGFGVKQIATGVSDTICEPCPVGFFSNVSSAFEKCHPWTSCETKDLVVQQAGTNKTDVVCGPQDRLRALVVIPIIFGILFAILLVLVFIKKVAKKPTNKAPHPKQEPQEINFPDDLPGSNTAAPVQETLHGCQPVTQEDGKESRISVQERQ
binder,measurement,setting,value
B1,Kd,[1],< 0.001 nM
same,koff,[1],< 1e-07 s⁻¹
same,kon,[1],47000 M⁻¹ s⁻¹
same,EC50 (read off the curve),[2],~3 nM
same,EC50 (read off the curve),[3],~0.6 nM
same,binding result,[4],no binding (tested: about 400 nM)
same,"EC50 of SEAP release, HEK Blue CD40L reporter cells, bsAb crosslinked to CHO-CEACAM5 cells, 0 Raji sink cells/well",[5],0.03 nM
same,"EC50 of SEAP release, same assay, 10 000 Raji sink cells/well",[5],0.06 nM
same,"EC50 of SEAP release, same assay, 30 000 Raji sink cells/well",[5],0.13 nM
same,"EC50 of SEAP release, same assay, 90 000 Raji sink cells/well",[5],0.36 nM
same,binding result,[6],no binding (tested: 100 nM)
same,binding result,[7],no binding (tested: 100 nM)
same,EC50 (read off the curve),[8],~0.5 nM
